The target of the assay is T1, His-MBP-tagged SSRP1 (1–709) (human, UniProt Q08945 1-709).
T1 construct: SSRP1 subunit of human FACT, residues 1-709; The tag was still on SSRP1 when the complex with Spt16 was purified on Nickel-NTA; it was cut afterwards; also called structure-specific recognition protein 1; source: E. coli BL21(DE3), purified (Nickel-NTA)
Briefly: pull-down; purified Spt16 and His-MBP-tagged SSRP1 mixed at a 1:1 molar ratio, complex purified on Nickel-NTA by the tag of SSRP1; after TEV cleavage again Nickel-NTA and Superdex 200 SEC; 50 mM NaH2PO4-Na2HPO4, 300 mM NaCl, pH 7.5. The following applies: both partners purified.

T1 sequence (Q08945 whole entry, the tested form may be a part): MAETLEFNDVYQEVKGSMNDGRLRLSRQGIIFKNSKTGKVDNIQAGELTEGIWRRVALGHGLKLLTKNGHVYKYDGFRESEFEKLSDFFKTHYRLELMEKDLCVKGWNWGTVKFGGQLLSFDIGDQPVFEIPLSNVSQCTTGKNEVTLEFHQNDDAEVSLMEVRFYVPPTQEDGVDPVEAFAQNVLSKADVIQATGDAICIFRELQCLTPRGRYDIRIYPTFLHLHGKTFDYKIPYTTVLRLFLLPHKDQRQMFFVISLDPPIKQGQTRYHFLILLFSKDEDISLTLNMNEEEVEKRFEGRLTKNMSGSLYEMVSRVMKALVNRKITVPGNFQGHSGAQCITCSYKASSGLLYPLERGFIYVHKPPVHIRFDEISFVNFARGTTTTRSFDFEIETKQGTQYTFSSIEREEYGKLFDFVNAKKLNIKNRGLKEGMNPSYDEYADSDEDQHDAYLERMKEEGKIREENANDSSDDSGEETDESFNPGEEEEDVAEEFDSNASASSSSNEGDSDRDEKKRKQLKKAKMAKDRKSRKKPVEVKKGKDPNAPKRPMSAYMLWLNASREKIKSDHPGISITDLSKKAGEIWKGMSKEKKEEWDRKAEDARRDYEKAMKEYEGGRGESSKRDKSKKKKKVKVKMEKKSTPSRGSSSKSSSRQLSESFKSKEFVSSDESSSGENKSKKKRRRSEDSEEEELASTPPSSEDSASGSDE

B1: Spt16 (501–1006) (domain or fragment, human, UniProt Q9Y5B9 501-1006, looked up)
chain: QIQKARKSNVSYKNPSLMPKEPHIREMKIYIDKKYETVIMPVFGIATPFHIATIKNISMSVEGDYTYLRINFYCPGSALGRNEGNIFPNPEATFVKEITYRASNIKAPGEQTVPALNLQNAFRIIKEVQKRYKTREAEEKEKEGIVKQDSLVINLNRSNPKLKDLYIRPNIAQKRMQGSLEAHVNGFRFTSVRGDKVDILYNNIKHALFQPCDGEMIIVLHFHLKNAIMFGKKRHTDVQFYTEVGEITTDLGKHQHMHDRDDLYAEQMEREMRHKLKTAFKNFIEKVEALTKEELEFEVPFRDLGFNGAPYRSTCLLQPTSSALVNATEWPPFVVTLDEVELIHFERVQFHLKNFDMVIVYKDYSKKVTMINAIPVASLDPIKEWLNSCDLKYTEGVQSLNWTKIMKTIVDDPEGFFEQGGWSFLEPEGEGSDAEEGDSESEIEDETFNPSEDDYEEEEEDSDEDYSSEAEESDYSKESLGSEEESGKDWDELEEEARKADRESRY
notes: Spt16 subunit of human FACT, residues 501-1006 (without the N-terminal domain); His-MBP tag cut with TEV protease and removed by SEC before mixing with SSRP1; also called suppressor of Ty 16; Spt16 without the NTD; source: E. coli BL21(DE3), purified (Nickel-NTA, TEV cleavage, Superdex 200 SEC)
With B1, the binding result was “binds”.
